Data reported in the supplement of paper PMC12764529.
± gives the half width of the 95% confidence interval.

Assay: folding stability dG unfold from trypsin proteolysis; higher = more stable
Procedure, shortened: (§1)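 How resistant each design was to proteolysis was captured as K50, inferred by Bayesian fitting of sequencing counts. Unfolding free energy was then derived relative to a sequence-predicted unfolded-state K50 and a shared folded-state K50, per protease or combined. Digestion used trypsin and chymotrypsin at 11 threefold-diluted concentrations plus a no-protease condition, on mini-proteins under 80 residues without cysteine in a PA-tagged cDNA display construct. Designs were kept only when AlphaFold2 dimer inter-PAE was above 15.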

Row | Sequence | folding stability dG unfold
1 | SKTIVIELENIEDMTKEELKNLIKELAEKGETVKVTILNKDGKEVKTIEIKPGEIVPFPKGSKVLIKIEKSA [r9_264_TrROS_Hall] | 1.42 ± 0.062 kcal/mol
2 | SAMTYTLTPAGGKTITVTLNPDGSITITSTSTSSSLPLSPDAKITSVTFDAATGTITITLNSKPITIPASAG [r14_276_JUSTAS] | 1.9 ± 0.057 kcal/mol
3 | SAGGSAGGSAGGDLNDAEIIDIYRDPDSDYYYAVFRGPDGGTYLVRFDPNSDRVEVIPLSAGGSAGGSAGGS [r10_674_TrMRF] | 2.27 ± 0.1 kcal/mol
4 | SAGLDIKKIEFDPNGYLRIEVVYDKNISIKEIIEEIKKLTGATVEKVEVKPTKNGVKAIFILKIDKNLKSAG [r5_774_TrMRF] | 1.12 ± 0.042 kcal/mol
5 | SAGGSAPVVEYEFVDPGNGRKVKIEVYPHPDGNYQMSIEVYDPGKPVEKIPFWMPPGEMPIEDLLKSAGGSA [r15_147_TrROS] | 0.528 ± 0.059 kcal/mol
6 | SAGGSAPEDNYVVLIFIDISIEWKPKYDEDNGKNRIEFEWKLEIDIPTIVLPPDDPEAKDLLEDLLSAGGSA [r15_470_TrROS] | 2.29 ± 0.067 kcal/mol
7 | SAGGSAGGSAGGPKAIVTEVEVEPNTGKARLKVKVYDPVTGKFSEFEVEVETTGKDLNLSAGGSAGGSAGGS [r10_173_TrMRF] | 1.08 ± 0.049 kcal/mol
8 | SAGGILDLAAERNAVSVEVLEVNPEPPTVTVRLTYRNAAGEPRTATFTVELPPPAPPVPLVLPGEATFSAGG [r13_608_TrMRF] | 0.735 ± 0.059 kcal/mol
9 | SAGGSAGGSAKPNKKFKFELVEVKEIEIYDKETNEKVYKISVAKVRLEDGSLLTFISIEEKSAGGSAGGSAG [r3_166_TrROS_Hall] | 2.34 ± 0.085 kcal/mol
10 | SAGGSAGGSAGGGMPSYVTKTTTTTVKITNTTTGGNSTTTTTSTVTVTTTTLLPPGLLASAGGSAGGSAGGS [r10_300_JUSTAS] | -0.147 ± 0.052 kcal/mol
11 | SAGGSAGGSAGSMTLSTSTSTTPTSLTTTTTTTTYDPTTGTTTTTSTTTTTALPAAPPSSTASAGGSAGGSA [r18_16_JUSTAS] | 0.0685 ± 0.064 kcal/mol
12 | SAGGSAGGSKPKEIETVTLKLTLKDPETGEEIEVTVELTRVRVDGKEYLILRVTDPDGKEIELSAGGSAGGS [r12_283_TrROS_Hall] | 3.13 ± 0.12 kcal/mol
13 | SAGGSAGGSAGGMPLVRIEVTNENGEKFTFIFESEEEAKAAAEALGVDVKIEKIPPGEEISAGGSAGGSAGG [r7_456_TrROS_Hall] | 2.54 ± 0.17 kcal/mol
14 | SAGGSAGGSAGGGMKVEKEESPDSTVTETITDPSSENTTIVTKEVLPDGSLKVTETKELPSAGGSAGGSAGG [r7_828_JUSTAS] | -0.224 ± 0.087 kcal/mol
15 | SAGGSAGGSAMTLNVPDAGGKTYTVEVLSYDPVKNTWTLLNPSTSETITITAEEAAKIKAAASAGGSAGGSA [r18_161_JUSTAS] | 2.01 ± 0.072 kcal/mol
16 | SAGGSAGGSAGGSLETRPVLLILKDEEGKPYAVARLEVRELPNGGVEVTVTEIVPAEELSAGGSAGGSAGGS [r4_117_TrMRF] | 0.912 ± 0.035 kcal/mol
17 | SAGGNWIWRIKFPGRSIHFNWEQGNIEIWPPDGEEKTIPLPPGEPLEEFADEFAEKNGFDKVEIEPVPSAGG [r13_852_TrROS] | 2.08 ± 0.11 kcal/mol
18 | SAGGSGPLLERALEEIREALAKAKEGEEVEIEVKVTVTGPDGRTREFTFRIRFVVKDGKIVKVEIESAGGSA [r2_173_TrROS_Hall] | 3.74 ± 0.22 kcal/mol
19 | SAGGSAGGSAGGLSLKVKNKKTGKWYDIESIEVKKDPSSGKPVIKIKTSGPKEVEKELVSAGGSAGGSAGGS [r10_663_TrMRF] | -0.894 ± 0.34 kcal/mol
20 | SAGGSAGGSAGGGSMPVTERIPGSPSSVTTTTFPDGTVTTETTAGPPVTLSPAGGSTLVSAGGSAGGSAGGS [r10_664_JUSTAS] | 0.97 ± 0.073 kcal/mol
21 | SAMIEIEAVFPPNVSLEEAVEAVKAEIESKGFEILEVKVEKLPNGEVLVRAVVKVKPEMPPEEIKKLAESAG [r14_110_TrMRF] | 1.5 ± 0.06 kcal/mol

Row | Sequence | folding stability dG unfold
22 | SAGGSAGGSAGGKKIKIKINSPGNAEEVKKLLEPFGLEVDSIKENKNNPNLIIVEVNVESAGGSAGGSAGGS [r10_104_TrMRF] | -0.276 ± 0.11 kcal/mol
23 | MEPPPVVVLEIEIEVPAEDEELRNMTAEELAARLAEELEALPGLKVVSVEVVEVEERPDGTLRVRIRVTIES [r1_484_TrROS_Hall] | 3.69 ± 0.47 kcal/mol
24 | SAGGSAGGSAGGMEIIEKEETLDEETLKKLEEEGVPKSEATVKVTEVIYKEEYPEEGLKSAGGSAGGSAGGS [r10_1149_JUSTAS] | 0.359 ± 0.072 kcal/mol
25 | SAGGSAGGSSLLVLRELADGGVALHLIDVEPDEPVGVETVLDEFRELHPDTPPLPVLILRPDPSAGGSAGGS [r12_262_TrMRF] | 0.251 ± 0.031 kcal/mol
26 | SAGPPGMRMVPFTIELPGKKIEIHVMEYPNGPPQYMVEIEDPNGKPKWTIMVTGPEARDLLEKAGIKFSAGG [r19_90_TrROS] | 0.438 ± 0.1 kcal/mol
27 | SAGGSAGGSGKPEKVKITYTKDTNTNKYTATITFENGPTYKITFPTKTPEEAIEQAKKLIEASSAGGSAGGS [r12_339_TrMRF] | 1.62 ± 0.061 kcal/mol
28 | SAGGSAGGKPTYYVAEVTYPGNLKATVVVEDKDNLTFVIPDTGEVWDLTDLDDIKITPVSADDPSAGGSAGG [r6_222_TrMRF] | 0.633 ± 0.033 kcal/mol
29 | SAGGSAGMPLVTAPVTRDPNSDVVTLTVYDPRTGETHTYTSPGSVEEAVEAFREATGLPISEVVLESAGGSA [r15_101_JUSTAS] | 1.45 ± 0.078 kcal/mol
30 | SMVVERDPDGVLRVYASPEEAERIVAELKAAGLDARVEAFDPETGVWVIPVRPVPPAGLEPTPENQALNRVS [r1_78_JUSTAS] | 0.502 ± 0.029 kcal/mol
31 | SAGGDKLEDLPLEDVEVLRVEVIPLPDGGVLVVFEFKVSDEEGPERLVRVVVLVENDEARVFVEPLGSAGGS [r16_469_TrMRF] | 2.05 ± 0.085 kcal/mol
32 | SAGGMIKIEVEKKDDKLIIRIEVDGKKYEIEIPKDMTLEEALKKALEELKEKFPGKKIKIKKVEIFKPSAGG [r13_884_TrROS_Hall] | 3.22 ± 0.21 kcal/mol
33 | SAGKDEKLVKVIVKFNDKTFEVVVKEEDLKKLVESGILKVVGKIPGKNIVAIKVEVPPPKGDPVGPTPVSAG [r5_868_TrMRF] | 2.08 ± 0.24 kcal/mol
34 | SAGGSEIRVEYDPSTGELRVLIVLPDGSVILKTVRVEPIDPGIAPDGSPIGAAVSISVEIVPPGELSAGGSA [r2_195_TrMRF] | 3.23 ± 0.1 kcal/mol
35 | GMNLKETTVTIPLKVKSEEEAKKKAEEIANELKKKYPDIIEIKIEIKEIDKETGIVIITIKFKAKNSSVLLS [r1_52_JUSTAS] | 2.18 ± 0.33 kcal/mol
36 | SAGMVLKITVKDKKTKEEREIVIEIPEDDPELKKLGIKSPEELAKKLAEELKKEGIEVEEVKVEAYPLPSAG [r5_722_TrROS_Hall] | 1.23 ± 0.096 kcal/mol
37 | SAGGSAGGSMKLTLESASPDPNKVTYTIKFPGGETLTEELPEEEIEKRSKELGWNIKLFGPTKSAGGSAGGS [r12_676_JUSTAS] | -0.0326 ± 0.29 kcal/mol
38 | SAGGSAGGSAGGSFDIEQERNPENGYHRVTIDFPNGPPVEIWMPPGSTLEQIEDLAKQFSAGGSAGGSAGGS [r4_205_TrROS] | 1.07 ± 0.036 kcal/mol
39 | SAGGSAGGPPPYYMVEIEIERRNPKNGKKQKFPVTVIMPPKEAEKIKDELEEWGYEIKVDVHPISAGGSAGG [r6_97_TrROS] | 0.856 ± 0.15 kcal/mol
40 | SAKLPEGAVVVIEDIEEKEVNGKKYKTIKISVYDKKNKGKLIAETEIVVENGKIVEKKVKVKKVSKEELSAG [r14_651_TrROS_Hall] | 0.887 ± 0.027 kcal/mol
41 | SMTIRIVDEKTKEVREIKIENLTVEKEKDGRYRMTREQVLEALKKLLPEDVKIVEVEENEDGELTIVVEPSA [r9_997_TrROS_Hall] | 2.41 ± 0.051 kcal/mol
42 | SAGGNIKIEVYRSPDYYMIRIKLDGKPYEIPIDPGNTEEEAAEQALDNLQEKFPDKPIKIKDVEIYPYSAGG [r13_884_TrROS] | 0.473 ± 0.22 kcal/mol

Assay: folding stability dG unfold from chymotrypsin proteolysis; higher = more stable
Procedure, shortened: as §1

Row | Sequence | folding stability dG unfold
43 | SKTIVIELENIEDMTKEELKNLIKELAEKGETVKVTILNKDGKEVKTIEIKPGEIVPFPKGSKVLIKIEKSA [r9_264_TrROS_Hall] | 1.49 ± 0.036 kcal/mol
44 | SAMTYTLTPAGGKTITVTLNPDGSITITSTSTSSSLPLSPDAKITSVTFDAATGTITITLNSKPITIPASAG [r14_276_JUSTAS] | 1.74 ± 0.17 kcal/mol
45 | SAGGSAGGSAGGDLNDAEIIDIYRDPDSDYYYAVFRGPDGGTYLVRFDPNSDRVEVIPLSAGGSAGGSAGGS [r10_674_TrMRF] | 3.387 ± 0.024 kcal/mol
46 | SAGLDIKKIEFDPNGYLRIEVVYDKNISIKEIIEEIKKLTGATVEKVEVKPTKNGVKAIFILKIDKNLKSAG [r5_774_TrMRF] | 3.052 ± 0.021 kcal/mol
47 | SAGGSAPVVEYEFVDPGNGRKVKIEVYPHPDGNYQMSIEVYDPGKPVEKIPFWMPPGEMPIEDLLKSAGGSA [r15_147_TrROS] | 0.565 ± 0.24 kcal/mol
48 | SAGGSAPEDNYVVLIFIDISIEWKPKYDEDNGKNRIEFEWKLEIDIPTIVLPPDDPEAKDLLEDLLSAGGSA [r15_470_TrROS] | 3.35 ± 0.14 kcal/mol
49 | SAGGSAGGSAGGPKAIVTEVEVEPNTGKARLKVKVYDPVTGKFSEFEVEVETTGKDLNLSAGGSAGGSAGGS [r10_173_TrMRF] | 2.37 ± 0.074 kcal/mol
50 | SAGGILDLAAERNAVSVEVLEVNPEPPTVTVRLTYRNAAGEPRTATFTVELPPPAPPVPLVLPGEATFSAGG [r13_608_TrMRF] | 2.46 ± 0.11 kcal/mol
51 | SAGGSAGGSAKPNKKFKFELVEVKEIEIYDKETNEKVYKISVAKVRLEDGSLLTFISIEEKSAGGSAGGSAG [r3_166_TrROS_Hall] | 3.78 ± 0.059 kcal/mol
52 | SAGGSAGGSAGGGMPSYVTKTTTTTVKITNTTTGGNSTTTTTSTVTVTTTTLLPPGLLASAGGSAGGSAGGS [r10_300_JUSTAS] | 1.2 ± 0.028 kcal/mol
53 | SAGGSAGGSAGSMTLSTSTSTTPTSLTTTTTTTTYDPTTGTTTTTSTTTTTALPAAPPSSTASAGGSAGGSA [r18_16_JUSTAS] | 1.64 ± 0.03 kcal/mol
54 | SAGGSAGGSKPKEIETVTLKLTLKDPETGEEIEVTVELTRVRVDGKEYLILRVTDPDGKEIELSAGGSAGGS [r12_283_TrROS_Hall] | 4.115 ± 0.039 kcal/mol
55 | SAGGSAGGSAGGMPLVRIEVTNENGEKFTFIFESEEEAKAAAEALGVDVKIEKIPPGEEISAGGSAGGSAGG [r7_456_TrROS_Hall] | 3.25 ± 0.085 kcal/mol
56 | SAGGSAGGSAGGGMKVEKEESPDSTVTETITDPSSENTTIVTKEVLPDGSLKVTETKELPSAGGSAGGSAGG [r7_828_JUSTAS] | 0.987 ± 0.06 kcal/mol
57 | SAGGSAGGSAMTLNVPDAGGKTYTVEVLSYDPVKNTWTLLNPSTSETITITAEEAAKIKAAASAGGSAGGSA [r18_161_JUSTAS] | 2.01 ± 0.066 kcal/mol
58 | SAGGSAGGSAGGSLETRPVLLILKDEEGKPYAVARLEVRELPNGGVEVTVTEIVPAEELSAGGSAGGSAGGS [r4_117_TrMRF] | 1.5 ± 0.095 kcal/mol
59 | SAGGNWIWRIKFPGRSIHFNWEQGNIEIWPPDGEEKTIPLPPGEPLEEFADEFAEKNGFDKVEIEPVPSAGG [r13_852_TrROS] | 1.94 ± 0.24 kcal/mol
60 | SAGGSGPLLERALEEIREALAKAKEGEEVEIEVKVTVTGPDGRTREFTFRIRFVVKDGKIVKVEIESAGGSA [r2_173_TrROS_Hall] | 4.94 ± 0.085 kcal/mol
61 | SAGGSAGGSAGGLSLKVKNKKTGKWYDIESIEVKKDPSSGKPVIKIKTSGPKEVEKELVSAGGSAGGSAGGS [r10_663_TrMRF] | -0.178 ± 0.22 kcal/mol
62 | SAGGSAGGSAGGGSMPVTERIPGSPSSVTTTTFPDGTVTTETTAGPPVTLSPAGGSTLVSAGGSAGGSAGGS [r10_664_JUSTAS] | 1.09 ± 0.058 kcal/mol
63 | SAMIEIEAVFPPNVSLEEAVEAVKAEIESKGFEILEVKVEKLPNGEVLVRAVVKVKPEMPPEEIKKLAESAG [r14_110_TrMRF] | 2.44 ± 0.2 kcal/mol
